Measurements: patent US20190142971A1, “FORMULATION AND DELIVERY OF MODIFIED NUCLEOSIDE, NUCLEOTIDE, AND NUCLEIC ACID COMPOSITIONS” (ModernaTX, Inc., priority 2013, published 2019)

Experiments:
Assay type in all cases: in vivo
[1] = system: mice; test: Example 42A: G-CSF/EPO mRNA in buffer IM in mice, serum protein at 13 hours (Table 67); conditions: IM 100 ug
Experimental: The mice were bled at 13 hours after the injection to determine the concentration of the human polypeptide in serum in pg/mL (G-CSF groups measured human G-CSF in mouse serum and EPO groups measured human EPO in mouse serum).

[2] = system: Sprague-Dawley rats; test: Example 35: duration after IM EPO mRNA in rats, serum EPO (Table 61); conditions: rats IM 100 μg, 24, 48 and 72 hour
Experimental: The rats were bled 2, 6, 12, 24, 48 and 72 hours after the intramuscular injection to determine the concentration of human EPO in serum at a given time.

[3] = system: mice; test: Example 65: G-CSF/EPO mRNA in saline in mice, serum protein at 13 hours (Table 97); conditions: 100 ug, 100 μl/mouse, F. buffer, 13 hours after injection; for Average Protein Product, serum (human G-CSF): G-CSF group
Experimental: The mice were bled at 13 hours after the injection to determine the concentration of the human polypeptide in serum in pg/mL. (G-CSF groups measured human G-CSF in mouse serum and EPO groups measured human EPO in mouse serum).

[4] = system: non-human primates (cynomolgus monkey); test: Example 22: NHP serum chemistry ALT and AST (Tables 45, 46)
[5] = system: non-human primates (cynomolgus monkey); test: Example 21: LNP IV in non-human primates, serum EPO/G-CSF ELISA (Table 37); conditions: for Average Serum Concentration / Female NHP Serum Concentration / Male NHP Serum Concentration: 0.05 mg/kg IV
Experimental: (§1) Formulations, listed in Table 33, were characterized by particle size, zeta potential, and encapsulation.
LNP formulations, shown in Table 33 (above), were administered to non-human primates (NHP) (cynomolgus monkey) (n=2) as a bolus intravenous injection (IV) over approximately 30 seconds using a hypodermic needle, which may be attached to a syringe/abbocath or butterfly if needed. The NHP were administered a single modified mRNA IV dose of 0.05 mg/kg of EPO or G-CSF or 0.005 mg/kg of EPO in a dose volume of 0.5 mL/kg. The NHPs were bled 5-6 days before dosing with the modified mRNA LNP formulations to determine protein expression in the serum and a baseline complete blood count. After administration with the modified mRNA formulation the NHP were bled at 8, 24, 48 and 72 hours to determined protein expression. At 24 and 72 hours after administration the complete blood count of the NHP was also determined. Protein expression of G-CSF and EPO was determined by ELISA. Urine from the NHPs was collected over the course of the entire experiment and analyzed to evaluate clinical safety. Samples were collected from the NHPs after they were administered with G-CSF or EPO modified mRNA formulations to determine protein expression using ELISA. Clinical chemistry, hematology, urinalysis and cytokines of the non-human primates were also analyzed.

[6] = system: rats; test: Example 17: LNP IV, IM, SC in rats, serum EPO/G-CSF ELISA (Table 34); conditions: for EPO / G-CSF Serum Concentration: LNP 0.05 mg/kg
Experimental: as §1
LNP formulations, shown in Table 33 (above), were administered to rats (n=5) intravenously (IV), intramuscularly (IM) or subcutaneously (SC) at a single modified mRNA dose of 0.05 mg/kg. A control group of rats (n=4) was untreated. […] The rats administered EPO modified mRNA intravenously were also bled at 7 days.

[7] = G-CSF group: human G-CSF in mouse serum
[8] = 0.005 mg/kg, 2 days, Female NHP
[9] = 0.005 mg/kg, 4 days, Female NHP
[10] = 0.005 mg/kg, 7 days, Female NHP
[11] = 0.005 mg/kg, 14 days, Female NHP
[12] = 0.005 mg/kg, Pre-dose, Female NHP
[13] = 0.005 mg/kg, Pre-dose, Male NHP
[14] = 0.05 mg/kg, 14 days, Female NHP
[15] = 0.05 mg/kg, Pre-dose, Female NHP
[16] = 0.5 mg/kg, Pre-dose, Female NHP

Luciferase: luciferase mRNA, SEQ ID NO: 14, Cap1, fully modified with 5-methylcytosine and pseudouridine
Average Protein Product, serum ([1]; EPO group: human EPO in mouse serum): 15.0 pg/mL | Average Protein Product, serum [1, 7]: 0.5 pg/mL | human EPO in serum, Avg. [2]: 37.2 pg/mL | human EPO in serum, Geometric-mean [2]: 29.2 pg/mL | Average Protein Product, serum (human EPO) ([3]; EPO group): 26.7 pg/mL | Average Protein Product, serum (human G-CSF) [3]: 0 pg/mL

B1: G-CSF: modified mRNA encoding human G-CSF, SEQ ID NO: 4, Cap1, fully modified with 5-methylcytosine and pseudouridine; LNP-formulated in Examples 16-22 (nucleic acid)
chain: GGGAAAUAAGAGAGAAAAGAAGAGUAAGAAGAAAUAUAAGAGCCACCAUGGCCGGUCCCGCGACCCAAAGCCCCAUGAAACUUAUGGCCCUGCAGUUGCUGCUUUGGCACUCGGCCCUCUGGACAGUCCAAGAAGCGACUCCUCUCGGACCUGCCUCAUCGUUGCCGCAGUCAUUCCUUUUGAAGUGUCUGGAGCAGGUGCGAAAGAUUCAGGGCGAUGGAGCCGCACUCCAAGAGAAGCUCUGCGCGACAUACAAACUUUGCCAUCCCGAGGAGCUCGUACUGCUCGGGCACAGCUUGGGGAUUCCCUGGGCUCCUCUCUCGUCCUGUCCGUCGCAGGCUUUGCAGUUGGCAGGGUGCCUUUCCCAGCUCCACUCCGGUUUGUUCUUGUAUCAGGGACUGCUGCAAGCCCUUGAGGGAAUCUCGCCAGAAUUGGGCCCGACGCUGGACACGUUGCAGCUCGACGUGGCGGAUUUCGCAACAACCAUCUGGCAGCAGAUGGAGGAACUGGGGAUGGCACCCGCGCUGCAGCCCACGCAGGGGGCAAUGCCGGCCUUUGCGUCCGCGUUUCAGCGCAGGGCGGGUGGAGUCCUCGUAGCGAGCCACCUUCAAUCAUUUUUGGAAGUCUCGUACCGGGUGCUGAGACAUCUUGCGCAGCCGUGAAGCGCUGCCUUCUGCGGGGCUUGCCUUCUGGCCAUGCCCUUCUUCUCUCCCUUGCACCUGUACCUCUUGGUCUUUGAAUAAAGCCUGAGUAGGAAG
modifications: Cap1, 5-methylcytosine, pseudouridine
ALT [4, 8]: 32 U/L | AST [4, 8]: 34 U/L | ALT ([4]; 0.005 mg/kg, 2 days, Male NHP): 39 U/L | AST ([4]; 0.005 mg/kg, 2 days, Male NHP): 70 U/L | ALT [4, 9]: 58 U/L | AST [4, 9]: 36 U/L | ALT ([4]; 0.005 mg/kg, 4 days, Male NHP): 48 U/L | AST ([4]; 0.005 mg/kg, 4 days, Male NHP): 39 U/L | ALT [4, 10]: 55 U/L | AST [4, 10]: 31 U/L | ALT ([4]; 0.005 mg/kg, 7 days, Male NHP): 29 U/L | AST ([4]; 0.005 mg/kg, 7 days, Male NHP): 28 U/L | ALT [4, 11]: 46 U/L | AST [4, 11]: 20 U/L | ALT ([4]; 0.005 mg/kg, 14 days, Male NHP): 44 U/L | AST ([4]; 0.005 mg/kg, 14 days, Male NHP): 39 U/L | ALT [4, 12]: 51 U/L | AST [4, 12]: 54 U/L | ALT [4, 13]: 43 U/L | AST [4, 13]: 35 U/L | ALT ([4]; 0.05 mg/kg, 2 days, Female NHP): 39 U/L | AST ([4]; 0.05 mg/kg, 2 days, Female NHP): 34 U/L | ALT ([4]; 0.05 mg/kg, 2 days, Male NHP): 82 U/L | AST ([4]; 0.05 mg/kg, 2 days, Male NHP): 95 U/L | ALT ([4]; 0.05 mg/kg, 4 days, Female NHP): 56 U/L | AST ([4]; 0.05 mg/kg, 4 days, Female NHP): 42 U/L | ALT ([4]; 0.05 mg/kg, 4 days, Male NHP): 88 U/L | AST ([4]; 0.05 mg/kg, 4 days, Male NHP): 69 U/L | ALT ([4]; 0.05 mg/kg, 7 days, Female NHP): 73 U/L | AST ([4]; 0.05 mg/kg, 7 days, Female NHP): 52 U/L | ALT ([4]; 0.05 mg/kg, 7 days, Male NHP): 73 U/L | AST ([4]; 0.05 mg/kg, 7 days, Male NHP): 62 U/L | ALT [4, 14]: 31 U/L | AST [4, 14]: 20 U/L | ALT ([4]; 0.05 mg/kg, 14 days, Male NHP): 50 U/L | AST ([4]; 0.05 mg/kg, 14 days, Male NHP): 59 U/L | ALT [4, 15]: 53 U/L | AST [4, 15]: 33 U/L | ALT ([4]; 0.05 mg/kg, Pre-dose, Male NHP): 58 U/L | AST ([4]; 0.05 mg/kg, Pre-dose, Male NHP): 99 U/L | ALT ([4]; 0.5 mg/kg, 2 days, Female NHP): 209 U/L | AST ([4]; 0.5 mg/kg, 2 days, Female NHP): 294 U/L | ALT ([4]; 0.5 mg/kg, 2 days, Male NHP): 63 U/L | AST ([4]; 0.5 mg/kg, 2 days, Male NHP): 196 U/L | ALT ([4]; 0.5 mg/kg, 4 days, Female NHP): 98 U/L | AST ([4]; 0.5 mg/kg, 4 days, Female NHP): 63 U/L | ALT ([4]; 0.5 mg/kg, 4 days, Male NHP): 70 U/L | AST ([4]; 0.5 mg/kg, 4 days, Male NHP): 67 U/L | ALT ([4]; 0.5 mg/kg, 7 days, Female NHP): 149 U/L | AST ([4]; 0.5 mg/kg, 7 days, Female NHP): 68 U/L | ALT ([4]; 0.5 mg/kg, 7 days, Male NHP): 41 U/L | AST ([4]; 0.5 mg/kg, 7 days, Male NHP): 53 U/L | ALT ([4]; 0.5 mg/kg, 14 days, Female NHP): 145 U/L | AST ([4]; 0.5 mg/kg, 14 days, Female NHP): 67 U/L | ALT ([4]; 0.5 mg/kg, 14 days, Male NHP): 43 U/L | AST ([4]; 0.5 mg/kg, 14 days, Male NHP): 47 U/L | ALT [4, 16]: 216 U/L | AST [4, 16]: 47 U/L | ALT ([4]; 0.5 mg/kg, Pre-dose, Male NHP): 29 U/L | AST ([4]; 0.5 mg/kg, Pre-dose, Male NHP): 32 U/L | Average Protein Product, serum [1, 7]: 19.8 pg/mL | Average Serum Concentration ([5]; 8 hours): 2,506 pg/ml | Female NHP Serum Concentration ([5]; 8 hours): 3289 pg/mL | Male NHP Serum Concentration ([5]; 8 hours): 1722 pg/mL | Average Serum Concentration ([5]; 24 hours): 515 pg/mL | Female NHP Serum Concentration ([5]; 24 hours): 722 pg/mL | Male NHP Serum Concentration ([5]; 24 hours): 307 pg/mL | Average Serum Concentration ([5]; 48 hours): 0 pg/mL | Female NHP Serum Concentration ([5]; 48 hours): 0 pg/mL | Male NHP Serum Concentration ([5]; 48 hours): 0 pg/mL | Average Serum Concentration ([5]; 72 hours): 0 pg/mL | Female NHP Serum Concentration ([5]; 72 hours): 0 pg/mL | Male NHP Serum Concentration ([5]; 72 hours): 0 pg/mL | Average Serum Concentration ([5]; Pre-bleed): 0 pg/mL | Female NHP Serum Concentration ([5]; Pre-bleed): 0 pg/mL | Male NHP Serum Concentration ([5]; Pre-bleed): 0 pg/mL | protein expression detectable out to ([5]; NHP IV, 0.05 mg/kg): 24 h | protein expression detectable out to ([6]; IV): 7 days | EPO / G-CSF Serum Concentration ([6]; IM, 2 hours): 1620.4 pg/mL | EPO / G-CSF Serum Concentration ([6]; IM, 8 hours): 7910.4 pg/mL | EPO / G-CSF Serum Concentration ([6]; IM, 24 hours): 893.3 pg/mL | EPO / G-CSF Serum Concentration ([6]; IM, 48 hours): OSC | EPO / G-CSF Serum Concentration ([6]; IM, 5 days): OSC | EPO / G-CSF Serum Concentration ([6]; IV, 2 hours): 31,331.9 pg/ml | EPO / G-CSF Serum Concentration ([6]; IV, 8 hours): 70,532.4 pg/ml | EPO / G-CSF Serum Concentration ([6]; IV, 24 hours): 5,738.6 pg/ml | EPO / G-CSF Serum Concentration ([6]; IV, 48 hours): 233.8 pg/mL | EPO / G-CSF Serum Concentration ([6]; IV, 5 days): 60.4 pg/mL | EPO / G-CSF Serum Concentration ([6]; SC, 2 hours): 80.3 pg/mL | EPO / G-CSF Serum Concentration ([6]; SC, 8 hours): 164.2 pg/mL | EPO / G-CSF Serum Concentration ([6]; SC, 24 hours): OSC | EPO / G-CSF Serum Concentration ([6]; SC, 48 hours): OSC | EPO / G-CSF Serum Concentration ([6]; SC, 5 days): OSC | protein expression detectable to ([6]; subcutaneous and intramuscular): at least 8 hours | Average Protein Product, serum (human G-CSF) [3]: 45 pg/mL
